From US20180215825A1 (BEIGENE, published 2018)

T1: human FcγRIIAH131 expressed on HEK293 cells (human, UniProt P12318 34-317)
T1 construct: whole, on cells
T1 sequence (looked up): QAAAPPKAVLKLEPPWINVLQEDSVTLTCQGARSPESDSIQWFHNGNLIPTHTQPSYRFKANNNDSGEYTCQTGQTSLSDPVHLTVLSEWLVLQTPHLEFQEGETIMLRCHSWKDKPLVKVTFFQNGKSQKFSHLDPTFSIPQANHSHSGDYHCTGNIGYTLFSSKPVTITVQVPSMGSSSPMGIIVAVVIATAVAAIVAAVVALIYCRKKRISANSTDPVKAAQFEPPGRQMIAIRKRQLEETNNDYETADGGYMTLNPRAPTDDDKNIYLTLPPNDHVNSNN

T2: human FcγRIIAR131 expressed on HEK293 cells (human, UniProt P12318 34-317)
T2 construct: whole, on cells
T2 sequence (looked up): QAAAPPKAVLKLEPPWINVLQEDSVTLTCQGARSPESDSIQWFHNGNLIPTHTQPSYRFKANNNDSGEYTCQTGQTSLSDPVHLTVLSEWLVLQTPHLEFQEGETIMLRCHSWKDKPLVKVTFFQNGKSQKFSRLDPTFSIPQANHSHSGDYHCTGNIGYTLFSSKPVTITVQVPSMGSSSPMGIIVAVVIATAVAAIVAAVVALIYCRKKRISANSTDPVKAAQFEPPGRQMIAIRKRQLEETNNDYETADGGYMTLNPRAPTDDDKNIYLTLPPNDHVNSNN


What was measured:
human C1q = target: T3, human C1q (human, UniProt P02745 23-245; P02746 28-253; P02747 29-245); experiment: ELISA: antibody coated on the plate at the x-axis concentration, human C1q added (2 µg/mL), bound C1q detected with an anti-C1q mAb
T3 construct: Bought (Cat. No. A400, Quidel); also called complement component C1q
Experimental: The ELISA-based C1q binding assay was done by conventional ELISA method with minor modification. […] After blocking and washing, the wells were incubated with 2 μg/mL of human C1q (Cat. No. A400, Quidel, San Diego, USA) at room temperature for 2 hours.

[1] = target: T4, human PD-L1, full length, expressed on cells (human, UniProt Q9NZQ7 19-290); experiment: FACS on HEK293/PD-L1 cells
T4 construct: also called HEK293/PD-L1 cells; HEK293/OS8/PD-L1 cells
Experimental: FACS binding analysis was performed as described in previous sections.

[2] = target: T4, human PD-L1, full length, expressed on …; experiment: FACS competition with PD-1/Fc on HEK293/PD-L1 cells
mouse PD-L1/His = target: T5, mouse PD-L1/His (mouse (Mus musculus), UniProt Q9EP73 19-239); experiment: ELISA on coated mouse PD-L1/His, anti-human Fc-HRP [C]
T5 construct: extracellular domain; Said to be expressed and purified in a similar way to the human PD-L1/His; also called murine PD-L1/His; murine PD-L1; not shown: His tag
Experimental: (§1) The monkey PD-L1/His and murine PD-L1/His were expressed and purified in a similar way to the human PD-L1/His as described earlier. […] The synthesized full length mAb was named as Y1-IgG1mc. The ELISA assay was performed essentially in the same way as described in the previous section. Briefly, 200 ng of PD-L1 protein was coated on each well of Nunc MaxiSorp ELISA plate (Cat. No. 442404, Nunc, Thermo Fisher). After washing and blocking, indicated concentrations of anti-PD-L1 mAbs were added and incubated at room temperature for 1 hour. After washing, the bound anti-PD-L1 mAbs were detected using a HRP-conjugated goat anti-human Fc antibody (Cat. No. A0170, Sigma).

[3] = target: T6, cynomolgus monkey PD-L1/His (cynomolgus monkey (Macaca fascicularis), UniProt G7PSE7 19-238); experiment: ELISA on coated cynomolgus monkey PD-L1/His, anti-human Fc-HRP [B]
T6 construct: extracellular domain; Said to be expressed and purified in a similar way to the human PD-L1/His (PD-L1-ECD/His); not shown: His tag
Experimental: as §1

[4] = target: T7, human FcγRI expressed on HEK293 cells (human, UniProt P12314 16-374); experiment: FACS, monomeric mAb on FcγR-expressing HEK293 cells, goat anti-human IgG F(ab')2-Alexa Fluor 488 detection
T7 construct: whole, on cells; Co-expressed with FcRγ subunit
Experimental: (§2) Bindings of humanized anti-PD-L1 in various IgG1 formats (wt, IgG1mc, IgG1mf, SEQ. NO. 27-29) to FcγRs were also determined by flow cytometry. In brief, a series of stable HEK293 transfectants expressing human FcγRs were established. These stable cell lines expressed FcγRI, FcγRIIAH131, FcγRIIAR131, FcγRIIB, FcγRIIIAF158 or FcγRIIIAV158, respectively. Multi-subunit FcγRs (i.e., FcγRI and FcγRIIIA) were co-expressed with FcRγ subunit.

[5] = target: T1, human FcγRIIAH131 expressed on HEK293 …; experiment: as above
Experimental: as §2

[6] = target: T2, human FcγRIIAR131 expressed on HEK293 …; experiment: as above
Experimental: as §2

[7] = target: T8, human FcγRIIIAF158 expressed on HEK293 cells (human, UniProt P08637 17-254); experiment: as above
T8 construct: whole, on cells; Co-expressed with FcRγ subunit
Experimental: as §2

[8] = target: T9, human FcγRIIIAV158 expressed on cells (human, UniProt P08637 17-254); experiment: as above
T9 construct: whole, on cells; Co-expressed with FcRγ subunit; on HEK293 cells in the FACS assays, on NK92MI/CD16V cells in the ADCC assay; also called CD16 (V158 allele)
Experimental: as §2

human PD-L1-ECD/His = target: T10, human PD-L1-ECD/His (human, UniProt Q9NZQ7 19-238); experiment: ELISA on coated human PD-L1/His, anti-human Fc-HRP; x-axis printed as 'Ag concentration', mAb concentration according to paragraph 44 [A]
T10 construct: Expressed in 293-F cells; also called PD-L1/His; human PD-L1/His
Experimental: as §1

T8 sequence (P08637 17-254): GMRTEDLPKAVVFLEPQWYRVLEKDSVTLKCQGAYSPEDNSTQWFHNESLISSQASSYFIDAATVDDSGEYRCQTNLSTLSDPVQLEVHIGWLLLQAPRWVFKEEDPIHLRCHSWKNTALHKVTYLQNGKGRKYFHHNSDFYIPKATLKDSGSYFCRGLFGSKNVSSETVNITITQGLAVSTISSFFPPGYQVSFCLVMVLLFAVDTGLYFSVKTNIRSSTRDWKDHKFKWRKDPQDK
T3 sequence (P02745 23-245, chain 1 of 3): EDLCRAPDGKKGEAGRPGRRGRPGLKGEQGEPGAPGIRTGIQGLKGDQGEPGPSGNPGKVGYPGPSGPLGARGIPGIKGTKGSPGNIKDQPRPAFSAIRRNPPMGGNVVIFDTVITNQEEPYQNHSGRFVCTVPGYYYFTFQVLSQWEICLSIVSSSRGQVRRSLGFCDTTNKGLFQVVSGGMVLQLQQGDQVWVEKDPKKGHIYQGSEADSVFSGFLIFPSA
T3 sequence (P02746 28-253, chain 2 of 3): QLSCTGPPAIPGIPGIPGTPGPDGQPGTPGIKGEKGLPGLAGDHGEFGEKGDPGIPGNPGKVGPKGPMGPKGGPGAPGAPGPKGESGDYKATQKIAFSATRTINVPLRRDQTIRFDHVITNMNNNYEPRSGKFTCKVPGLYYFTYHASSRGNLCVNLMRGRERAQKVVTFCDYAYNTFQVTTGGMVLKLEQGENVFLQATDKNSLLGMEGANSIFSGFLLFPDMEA
T3 sequence (P02747 29-245, chain 3 of 3): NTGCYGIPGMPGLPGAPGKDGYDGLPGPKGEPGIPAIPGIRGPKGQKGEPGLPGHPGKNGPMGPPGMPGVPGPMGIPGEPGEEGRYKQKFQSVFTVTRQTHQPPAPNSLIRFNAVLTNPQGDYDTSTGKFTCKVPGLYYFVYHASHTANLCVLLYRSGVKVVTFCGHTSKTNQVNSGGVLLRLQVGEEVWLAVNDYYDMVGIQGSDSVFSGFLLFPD
T5 sequence (Q9EP73 19-239): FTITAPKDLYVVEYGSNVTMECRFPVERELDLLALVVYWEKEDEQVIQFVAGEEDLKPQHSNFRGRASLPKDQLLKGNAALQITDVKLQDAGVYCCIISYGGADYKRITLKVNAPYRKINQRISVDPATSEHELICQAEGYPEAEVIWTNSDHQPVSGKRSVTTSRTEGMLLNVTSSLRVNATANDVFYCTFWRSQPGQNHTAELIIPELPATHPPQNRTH
T10 sequence (Q9NZQ7 19-238): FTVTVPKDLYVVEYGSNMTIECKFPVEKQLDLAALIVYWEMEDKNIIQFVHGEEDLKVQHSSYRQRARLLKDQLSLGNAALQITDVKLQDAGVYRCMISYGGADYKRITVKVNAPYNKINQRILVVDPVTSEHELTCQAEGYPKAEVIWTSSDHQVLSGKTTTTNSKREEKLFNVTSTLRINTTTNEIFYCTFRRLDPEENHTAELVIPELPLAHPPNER
T7 sequence (P12314 16-374): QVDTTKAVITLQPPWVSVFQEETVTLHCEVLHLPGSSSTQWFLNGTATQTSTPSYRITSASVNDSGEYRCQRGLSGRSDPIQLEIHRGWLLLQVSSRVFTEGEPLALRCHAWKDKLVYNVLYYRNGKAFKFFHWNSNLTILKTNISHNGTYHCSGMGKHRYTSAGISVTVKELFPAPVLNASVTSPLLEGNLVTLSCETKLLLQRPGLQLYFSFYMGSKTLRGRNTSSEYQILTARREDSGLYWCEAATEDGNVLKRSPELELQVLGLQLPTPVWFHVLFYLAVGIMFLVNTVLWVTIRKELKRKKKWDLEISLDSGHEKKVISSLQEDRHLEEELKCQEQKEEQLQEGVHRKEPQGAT
T6 sequence (G7PSE7 entry or part of it): as the sequence (Q9NZQ7 19-238) above, with A33T, A34S, S62N, R68Q, Q82R, F173L, T185A, T192I, H215L counted along it
T4 sequence (Q9NZQ7 19-290 limits assumed): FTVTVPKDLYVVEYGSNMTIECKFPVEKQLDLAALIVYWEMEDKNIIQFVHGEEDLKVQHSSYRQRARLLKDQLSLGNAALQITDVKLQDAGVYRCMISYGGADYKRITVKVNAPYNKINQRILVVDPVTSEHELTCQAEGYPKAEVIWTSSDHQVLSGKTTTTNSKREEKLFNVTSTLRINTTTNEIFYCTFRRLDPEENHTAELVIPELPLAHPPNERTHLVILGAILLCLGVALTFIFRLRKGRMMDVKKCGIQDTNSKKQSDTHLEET
T9 sequence (P08637 17-254 F176V limits assumed): as the sequence (P08637 17-254) above, with F160V counted along it

| EC50 [1] | Top MFI [1] | IC50 [2] | Max inhibition [2] | binding result (mouse PD-L1/His) | EC50 (read off the curve) [3] | binding result [4] | binding result [5] | binding result [6] | binding result [7] | binding result [8] | EC50 (read off the curve) (human PD-L1-ECD/His) | Binder | binding result (human C1q) |
| --- | --- | --- | --- | --- | --- | --- | --- | --- | --- | --- | --- | --- | --- |
|  |  |  |  |  |  |  |  |  |  |  |  | hu333-4A2-IgG1wt (antibody, light chain constant region (kappa) not tied to an entry for this form) heavy: not shown VL: DIQMTQSPSSLSASVGDRVTITCKASQDVGIVVAWYQQKPGKAPKLLIYWASIRHTGVPSRFSGSGSGTEFTLTISSLQPDDFATYYCQQYSNYPLYTFGQGTKVEIK | binds |
| 0.092 µg/mL | 1390 MFI | 0.167 µg/mL | 100% | no binding (tested: 1 µg/ml) | ~0.04 µg/mL | no binding | no binding | no binding | no binding | no binding | ~0.03 µg/mL | hu333-4B2-IgG1mc (antibody) heavy: EVQLVESGGGLVQPGGSLRLSCAVSGFSLTSYGVHWVRQAPGKGLEWVAVIWAGGSTNYADSVKGRFTISKDTSKNTVYLQMNSLRAEDTAVYYCAKPYGTSAMDYWGQGTLVTVSSASTKGPSVFPLAPSSKSTSGGTAALGCLVKDYFPEPVTVSWNSGALTSGVHTFPAVLQSSGLYSLSSVVTVPSSSLGTQTYICNVNHKPSNTKVDKKVEPKSCDKTHTCPPCPAPPAAAPSVFLFPPKPKDTLMISRTPEVTCVVVDVSHEDPEVKFNWYVDGVEVHNAKTKPREEQYNSTYRVVSVLTVLHQDWLNGKEYKCKVSNKALAAPIEKTISKAKGQPREPQVYTLPPSRDELTKNQVSLTCLVKGFYPSDIAVEWESNGQPENNYKTTPPVLDSDGSFFLYSKLTVDKSRWQQGNVFSCSVMHEALHNHYTQKSLSLSPGK light: DIQMTQSPSSLSASVGDRVTITCKASQDVGIVVAWYQQKPGKAPKLLIYWASIRHTGVPSRFSGSGSGTEFTLTISSLQPDDFATYYCQQYSNYPLYTFGQGTKVEIKRTVAAPSVFIFPPSDEQLKSGTASVVCLLNNFYPREAKVQWKVDNALQSGNSQESVTEQDSKDSTYSLSSTLTLSKADYEKHKVYACEVTHQGLSSPVTKSFNRGEC | no binding (tested: about 20 µg/ml (coating concentration)) |
| 0.102 µg/mL | 1340 MFI | 0.174 µg/mL | 100% | no binding (tested: 1 µg/ml) | ~0.04 µg/mL | no binding | no binding | no binding | no binding | no binding | ~0.03 µg/mL | hu333-4B2-IgG1mf (antibody) heavy: EVQLVESGGGLVQPGGSLRLSCAVSGFSLTSYGVHWVRQAPGKGLEWVAVIWAGGSTNYADSVKGRFTISKDTSKNTVYLQMNSLRAEDTAVYYCAKPYGTSAMDYWGQGTLVTVSSASTKGPSVFPLAPSSKSTSGGTAALGCLVKDYFPEPVTVSWNSGALTSGVHTFPAVLQSSGLYSLSSVVTVPSSSLGTQTYICNVNHKPSNTKVDKKVEPKSCDKTHTCPPCPAPPAAGPSVFLFPPKPKDTLMISRTPEVTCVVVDVSHEDPEVKFNWYVDGVEVHNAKTKPREEQYNSTYRVVSVLTVLHQDWLNGKEYKCKVSNKALAAPIEKTISKAKGQPREPQVYTLPPSRDELTKNQVSLTCLVKGFYPSDIAVEWESNGQPENNYKTTPPVLDSDGSFFLYSKLTVDKSRWQQGNVFSCSVMHEALHNHYTQKSLSLSPGK light: DIQMTQSPSSLSASVGDRVTITCKASQDVGIVVAWYQQKPGKAPKLLIYWASIRHTGVPSRFSGSGSGTEFTLTISSLQPDDFATYYCQQYSNYPLYTFGQGTKVEIKRTVAAPSVFIFPPSDEQLKSGTASVVCLLNNFYPREAKVQWKVDNALQSGNSQESVTEQDSKDSTYSLSSTLTLSKADYEKHKVYACEVTHQGLSSPVTKSFNRGEC | no binding (tested: about 20 µg/ml (coating concentration)) |
| 0.098 µg/mL | 1360 MFI | 0.172 µg/mL | 100% | no binding (tested: 1 µg/ml) | ~0.04 µg/mL | no binding | no binding | no binding | no binding | no binding | ~0.03 µg/mL | hu333-4A2-IgG1mc (antibody) heavy: EVQLVESGGGLVQPGGSLRLSCAVSGFSLTSYGVHWVRQAPGKGLEWVAVIWAGGSTNYVDSVKGRFTISKDNAKNTVYLQMNSLRAEDTAVYYCAKPYGTSAMDYWGQGTLVTVSSASTKGPSVFPLAPSSKSTSGGTAALGCLVKDYFPEPVTVSWNSGALTSGVHTFPAVLQSSGLYSLSSVVTVPSSSLGTQTYICNVNHKPSNTKVDKKVEPKSCDKTHTCPPCPAPPAAAPSVFLFPPKPKDTLMISRTPEVTCVVVDVSHEDPEVKFNWYVDGVEVHNAKTKPREEQYNSTYRVVSVLTVLHQDWLNGKEYKCKVSNKALAAPIEKTISKAKGQPREPQVYTLPPSRDELTKNQVSLTCLVKGFYPSDIAVEWESNGQPENNYKTTPPVLDSDGSFFLYSKLTVDKSRWQQGNVFSCSVMHEALHNHYTQKSLSLSPGK light: DIQMTQSPSSLSASVGDRVTITCKASQDVGIVVAWYQQKPGKAPKLLIYWASIRHTGVPSRFSGSGSGTEFTLTISSLQPDDFATYYCQQYSNYPLYTFGQGTKVEIKRTVAAPSVFIFPPSDEQLKSGTASVVCLLNNFYPREAKVQWKVDNALQSGNSQESVTEQDSKDSTYSLSSTLTLSKADYEKHKVYACEVTHQGLSSPVTKSFNRGEC | no binding (tested: about 20 µg/ml (coating concentration)) |
